Laboratory results as given in patent publication US20110091971A1, “Differentiation of Pluripotent Stem Cells” (priority 2008, published 2011).

Tests used:
[1] = test system: Human Embryonic Stem Cells (H1 hESC line); assay: High content analysis of cell number, PDX1 and CDX2 protein expression at conclusion of third step of differentiation (Example 12); type: cell-based; details: end of third step; peptide given during first step; compared with commercial activin A or ACTN1
Method: (§1) At the conclusion of the first step of the differentiation protocol, replicate sets of parallel wells for each treatment group were subjected to further step-wise differentiation. It is important to note that after the first three days, all wells undergoing continuing culture and differentiation received the same treatment. The protocol for this continuing differentiation is described below.
During the second step of differentiation, cultures were grown for two days in DMEM:F12 medium (Invitrogen; Cat #11330-032) supplemented with 2% Albumin Bovine Fraction V, Fatty Acid Free (FAF BSA) (MP Biomedicals, Inc; Cat #152401), 50 ng/ml FGF7 (PeproTech; Cat #100-19), and 250 nM cyclopamine (Calbiochem; Cat #239804). Medium in each well was aspirated and replaced with a fresh aliquot (0.5 ml) on both days.
Step 3 of the differentiation protocol was carried out over four days. Cells were fed daily by aspirating medium from each well and replacing with a fresh aliquot (0.5 ml) of DMEM-high glucose (Invitrogen; Cat #10569) supplemented with 1% B27 (Invitrogen; Cat #17504-044), 50 ng/ml FGF7, 100 ng/ml Noggin (R&D Systems; Cat #3344-NG), 250 nM KAAD-cyclopamine (Calbiochem; Cat #239804), and 2 μM all-trans retinoic acid (RA) (Sigma-Aldrich; Cat #R2625). At the conclusion of the third step of differentiation, cells from some wells were harvested for analysis by RT-PCR to measure markers of differentiation. Other culture wells were subjected to high content image analysis for protein expression levels of PDX1, a transcription factor correlated with pancreatic endoderm differentiation, and CDX2, a transcription factor associated with intestinal endoderm.
High Content Analysis: At the conclusion of three days of culture, assay plates were washed once with PBS (Invitrogen; Cat #14190), fixed with 4% paraformaldehyde (Alexis Biochemical; Cat #ALX-350-011) at room temperature for 20 minutes, then washed three times with PBS and permeabilized with 0.5% Triton X-100 (Sigma; Cat #T8760-2) for 20 minutes at room temperature. Cells were washed again three times with PBS and blocked with 4% chicken serum (Invitrogen; Cat #16110082) in PBS for 30 minutes at room temperature. Primary antibody (goat anti-human SOX17; R&D Systems; Cat #AF1924) was diluted 1:100 in 4% chicken serum and added to each well for two hours at room temperature. […]
Imaging was performed using an IN Cell Analyzer 1000 (GE Healthcare) utilizing the 51008bs dichroic for cells stained with Hoechst 33342 and Alexa Fluor 488. […] Segmentation for the nuclei was determined based on gray-scale levels (baseline range 100-300) and nuclear size. Averages and standard deviations were calculated for each replicate data set. […]

[2] = test system: Human Embryonic Stem Cells (H1 hESC line); assay: RT-PCR of PDX1 and CDX2 at conclusion of third step of differentiation (Example 12); type: cell-based; details: end of third step; peptide given during first step
From the text: as §1, with “below. […]” for “below.”
RT-PCR Analysis: RNA samples were purified by binding to a silica-gel membrane (Rneasy Mini Kit, Qiagen, CA) in the presence of an ethanol-containing, high-salt buffer followed by washing to remove contaminants. […] Yield and purity were assessed by A260 and A280 readings on a spectrophotometer. […]
Unless otherwise stated, all reagents were purchased from Applied Biosystems. […] For each primer/probe set, a Ct value was determined as the cycle number at which the fluorescence intensity reached a specific value in the middle of the exponential region of amplification. Relative gene expression levels were calculated using the comparative Ct method. […] The normalized amount of target was calculated as 2-ΔCt, assuming amplification to be 100% efficiency. […]

B1: ACTN4: activin A variant peptide, SEQ ID 5 (protein)
chain: GLECDGKVNLCCKKQLFVSFKDIGWNDWIIAPSGYHANHCSGLCPSHIAGTSGSSLSFHSTVINHYRMRGHSPFSDMGACCVPTKLRPMSMLYYDDGQNIIKKDIQNMIVEECGCS
[1]
  cell numbers: equivalent cell numbers
  protein expression of PDX1 and CDX2: equivalent protein expression
[2]
  RT-PCR results for PDX1 and CDX2: in agreement

B2: ACTN48: activin A variant peptide, SEQ ID 49 (protein)
chain: GLECDGKVNLCCKKQNFVSFKDIGWNDWIIAPSGYHANECSGLCPSHIAGTSGSSLSFHSTVINHYRMRGHSPFANMGACCIPTKLRPMSMLYYDDGQNIIKKDIQNMIVEECGCS
[1]
  cell numbers: equivalent cell numbers
  protein expression of PDX1 and CDX2: equivalent protein expression
[2]
  RT-PCR results for PDX1 and CDX2: in agreement
